The results in this text go back to PMC10920689.

Test [1] concerns the target truncated soluble biotinylated mouse FcRn lacking the transmembrane domain (mouse | not stated) (UniProt Q61559).
Test [2] has as its target human FcRn coupled to the FcRn retention column (UniProt P55899). The test is described as follows: analytical FcRn affinity chromatography; 100 μg NIP IgG1 variant injected over a human FcRn retention column at pH 6.0, eluted by a pH gradient 6.0 to 8.8 over 110 min (20 mM MES, 140 mM NaCl pH 6.0; 20 mM Tris/HCl, 140 NaCl pH 8.8).
Test [3] deals with truncated soluble human FcRn of the FcRn binding ELISAs (hFcRn-GST or biotinylated human FcRn; the form is not told for the panel) (UniProt P55899).
Test [4] shares this target. The source holds these as a separate data set.
Test [5] addresses anti-NIP IgG1 YTE/KF (human). In words: SPR; IgG variants amine-coupled to CM5 chips (300 RU), serial dilutions of monomeric hFcRn-His injected; phosphate buffer pH 6.0, 25 °C, 50 µl/min; 1:1 Langmuir model.
Test [6] has as its target anti-NIP IgG1 Q311R/M428E/N434W (REW) (human). Described as above.
In the next test the target is anti-NIP IgG4 WT (human). Described as above.
In another test the target is anti-NIP IgG1 LS (human). Described as above.
For the next test, the target named is anti-NIP IgG2 WT (human). Described as above.
For the next test, the target named is anti-NIP IgG1 WT (human). The test is described as above.
The target of test [7] is anti-NIP IgG3 R435H/REW (human). The description is as above.
For test [8], the target named is recombinant etanercept WT. Described as above.
Test [9] addresses anti-NIP IgG1 DHS (human). The test is described as above.
In test [10] the target is anti-NIP IgG2 REW (human). The test is described as above.
Another test has as its target anti-NIP IgG3 WT (human). The test is described as above.
The target in the next test is anti-NIP IgG1 KF (human). The test is described as above.
For test [11], the target named is anti-NIP IgG1 YTE (human). Described as above.
For test [12], the target named is anti-NIP IgG4 REW (human). The test is described as above.
In test [13] the target is anti-NIP human IgG1 Q311R/M428E/N434W (REW) (human). The test is described as follows: SPR; Biacore 3000; NIP IgG1 variants amine-coupled (300 RU) to CM5 chips; serial dilutions of monomeric hFcRn-His injected at pH 6.0 (phosphate), 50 μl/min, 25 °C; Langmuir 1:1 model.

UniProt Q61559, sequence (Q61559 22-297, chain 1 of 2): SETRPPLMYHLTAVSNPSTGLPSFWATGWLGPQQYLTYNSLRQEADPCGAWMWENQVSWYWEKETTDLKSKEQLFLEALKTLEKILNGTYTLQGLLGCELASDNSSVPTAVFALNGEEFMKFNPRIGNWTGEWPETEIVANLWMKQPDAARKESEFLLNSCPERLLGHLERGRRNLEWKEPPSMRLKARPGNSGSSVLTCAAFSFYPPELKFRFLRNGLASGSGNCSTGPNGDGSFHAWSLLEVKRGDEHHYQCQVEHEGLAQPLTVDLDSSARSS
UniProt Q61559, sequence (P01887 21-119, chain 2 of 2, further chain): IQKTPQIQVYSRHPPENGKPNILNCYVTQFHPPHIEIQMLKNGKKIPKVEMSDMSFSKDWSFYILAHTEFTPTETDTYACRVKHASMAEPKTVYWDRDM

Take “anti-NIP human IgG1 Q311R/M428E/N434W (REW) (antibody)”: in [1], the plasma half-life in conventional mice, against WT came out at 2 fold. In test [2], the pH of elution from the FcRn column is 7.58 pH. In [3], this substance registered a plasma half-life after i.v. injection (5 mg/kg) in human FcRn transgenic mice (Tg32) preloaded with IVIg of 341 h.

Consider “anti-NIP human IgG1 wild type (antibody)”, for which, in test [2], the pH of elution from the FcRn column was 6.95 pH. The plasma half-life after i.v. injection (5 mg/kg) in human FcRn transgenic mice (Tg32) preloaded with IVIg in [3] worked out at 187 h.

In turn, “anti-NIP human IgG2 Q311R/M428E/N434W (REW) (antibody)” returned a plasma half-life in Tg32 mice preloaded with IVIg in test [4] of 276 h.

The substance “anti-NIP human IgG2 wild type (antibody)” showed a plasma half-life in Tg32 mice preloaded with IVIg in test [4] of 202 h.

For the substance “truncated soluble His6x tagged human FcRn lacking the transmembrane domain (hFcRn-His) (from UniProt P55899 24-297; P61769 21-119) (receptor)”, the Kd (commonly the constant that tells how readily two partners part at equilibrium) was 3.44 nM in test [5]; 8.39 nM in [6]; 1280 nM with anti-NIP IgG4 WT (human); 13.7 nM in the test with anti-NIP IgG1 LS (human); 388 nM with anti-NIP IgG2 WT (human); 171 nM in the test with anti-NIP IgG1 WT (human). The Kd in [7] worked out at 10.3 nM; in test [8], 346 nM; in test [9], 40.3 nM; in [10], 13.3 nM; with anti-NIP IgG3 WT (human) it was 525 nM; in the test with anti-NIP IgG1 KF (human), 15.9 nM. Besides, the Kd in [11] is 28.2 nM; in test [12], 13.1 nM. The koff (commonly the first-order rate constant of dissociation) is 0.003 s⁻¹ in [5]; 0.0055 s⁻¹ in test [6]; 0.123 s⁻¹ in the test with anti-NIP IgG4 WT (human); 0.0058 s⁻¹ with anti-NIP IgG1 LS (human); 0.0536 s⁻¹ with anti-NIP IgG2 WT (human); 0.0825 s⁻¹ with anti-NIP IgG1 WT (human). Also, the koff in test [7] turned out to be 0.007 s⁻¹; in test [8], 0.12 s⁻¹; in [9], 0.0304 s⁻¹; in test [10] it was 0.0075 s⁻¹; with anti-NIP IgG3 WT (human), 0.177 s⁻¹; in the test with anti-NIP IgG1 KF (human), 0.0122 s⁻¹. Further, the values for the koff in test [11] and in [12] were 0.0168 s⁻¹ and 0.008 s⁻¹, respectively. Further, the kon (commonly a measure of how fast the partners come together) in test [5] was 871000 M⁻¹ s⁻¹; in test [6] it was 653000 M⁻¹ s⁻¹; in the test with anti-NIP IgG4 WT (human), 95800 M⁻¹ s⁻¹; with anti-NIP IgG1 LS (human) it was 422000 M⁻¹ s⁻¹; with anti-NIP IgG2 WT (human) it was 138000 M⁻¹ s⁻¹; with anti-NIP IgG1 WT (human) it was 483000 M⁻¹ s⁻¹. The kon in test [7] came out at 674000 M⁻¹ s⁻¹; in test [8], 348000 M⁻¹ s⁻¹; in [9], 756000 M⁻¹ s⁻¹; in test [10], 570000 M⁻¹ s⁻¹; in the test with anti-NIP IgG3 WT (human), 337000 M⁻¹ s⁻¹; with anti-NIP IgG1 KF (human), 770000 M⁻¹ s⁻¹. The association rate constant (kon) in test [11] was 594000 M⁻¹ s⁻¹; in [12], 606000 M⁻¹ s⁻¹.

“truncated soluble His6x tagged human FcRn lacking the transmembrane domain (hFcRn-His), monomeric fraction (from UniProt P55899 24-297; P61769 21-119) (receptor)” yielded a fold lower KD than WT in [13] of 20 fold.
